In paper PMC10939263:

Experiments:
C1-fused SRC kinases = assay: split reporter (BiFC, NanoBiT); Gaussia princeps luciferase complementation assay in human HEK293T cells; Gluc2 at the N terminus of SKAP1 or SKAP2 (N2), Gluc1 at the N terminus (N1) or C terminus (C1) of the SRC kinase; 100 ng plasmid pair, PEI; luminescence read in lysate one day later; normalized luminescence ratio (NLR), given relative to wild type or to SKAP2
FGR, C1-fused = FGR, C1-fused (UniProt P09769); assay: luciferase complementation assay (normalized luciferase ratio, NLR); settings: HEK293T cells; one experiment; read off a plot
BLK, C1-fused = BLK, C1-fused (UniProt P51451); assay: as above; settings: HEK293T cells; one experiment; read off a plot
LYN, C1-fused = LYN, C1-fused (UniProt P07948); assay: as above; settings: HEK293T cells; one experiment; read off a plot
[1] = target: FYN (isoform without exon 7), C1-fused, P06241-3; assay: as above; settings: HEK293T cells; one experiment; read off a plot
[2] = target: HCK wild type, C1-fused, P08631-2; assay: as above; settings: HEK293T cells; one experiment; read off a plot
LYN, N1-fused = LYN, N1-fused (UniProt P07948); assay: as above; settings: HEK293T cells; one experiment; read off a plot
LCK wild type, C1-fused = LCK wild type, C1-fused (UniProt P06239); assay: as above; settings: HEK293T cells; one experiment; read off a plot
BLK, N1-fused = BLK, N1-fused (UniProt P51451); assay: as above; settings: HEK293T cells; one experiment; read off a plot
FRK, C1-fused = FRK, C1-fused (UniProt P42685); assay: as above; settings: HEK293T cells; one experiment; read off a plot
[3] = target: FYN (isoform without exon 7), N1-fused, P06241-3; assay: as above; settings: HEK293T cells; one experiment; read off a plot

SKAP2 normalized NLR, mean over C1-fused SRC kinases (against wild type SKAP2) (C1-fused SRC kinases) | ratio to parent (FGR, C1-fused) | ratio to parent (BLK, C1-fused) | ratio to parent (LYN, C1-fused) | ratio to parent [1] | ratio to parent [2] | ratio to parent (LYN, N1-fused) | ratio to parent (LCK wild type, C1-fused) | ratio to parent (BLK, N1-fused) | ratio to parent (FRK, C1-fused) | ratio to parent [3] | Substance
0.39 |  |  |  |  |  |  |  |  |  |  | SRC kinase associated phosphoprotein 1 (SKAP1), wild type, N2-fused (from UniProt Q86WV1 1-359) (natural protein)
 | 1.3 | 0.9 | 1.2 | 0.78 | 1.3 | 0.93 | 0.68 | 0.7 | 0.64 | 0.66 | SRC kinase associated phosphoprotein 1 (SKAP1), wild type, N2-fused (from UniProt Q86WV1) DIM-
